± gives the uncertainty stated by the source.
B1: library; numbered along this chain (parent)
chain: MEVVDPQQLGMFTEGELMSVGMDTFIHRIDSTEVIYQPRRKRAKLIGKYLMGDLLGEGSYGKVKEVLDSETLCRRAVKILKKKKLRRIPNGEANVKKEIQLLRRLRHKNVIQLVDVLYNEEKQKMYMVMEYCVCGMQEMLDSVPEKRFPVCQAHGYFCQLIDGLEYLHSQGIVHKDIKPGNLLLTTGGTLKISDLGVAEALHPFAADDTCRTSQGSPAFQPPEIANGLDTFSGFKVDIWSAGVTLYNITTGLYPFEGDNIYKLFENIGKGSYAIPGDCGPPLSDLLKGMLEYEPAKRFSIRQIRQHSWFRKKHPPAEAPVPIPPSPDTKDRWRSMTVVPYLEDLHGADEDEDLFDIEDDIIYTQDFTVPGQVPEEEASHNGQRRGLPKAVCMNGTEAAQLSTKSRAEGRAPNPARKACSASSKIRRLSACKQQ

Variants of: B1
Test: STK11 functional score (HeLa growth suppression), rescaled enrichment; synonymous median = 1, nonsense median = 0 (normalised score)
Conditions: with HeLa; variant type: missense
Procedure, shortened: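 The functional score takes the post/pre-selection log ratio, corrects it to wild type, rescales it to synonymous and nonsense medians, and merges it over codons and replicate transfections, with error from bootstrapping. Counts came from tiled gDNA amplicons sequenced on NextSeq (~2 million reads per tile). The libraries were POPCode codon-randomised, codon-optimised STK11 integrated by Bxb1 at an AAVS1 landing pad in HeLa, three regions with three transfections each.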

Row | Variant | STK11 functional score
1 | MEVVDPQQLGMFTEGELMSVGMDTFIHRIDSTEVIYQPRRKRAKLAGKYLMGDLLGEGSYGKVKEVLDSETLCRRAVKILKKKKLRRIPNGEANVKKEIQLLRRLRHKNVIQLVDVLYNEEKQKMYMVMEYCVCGMQEMLDSVPEKRFPVCQAHGYFCQLIDGLEYLHSQGIVHKDIKPGNLLLTTGGTLKISDLGVAEALHPFAADDTCRTSQGSPAFQPPEIANGLDTFSGFKVDIWSAGVTLYNITTGLYPFEGDNIYKLFENIGKGSYAIPGDCGPPLSDLLKGMLEYEPAKRFSIRQIRQHSWFRKKHPPAEAPVPIPPSPDTKDRWRSMTVVPYLEDLHGADEDEDLFDIEDDIIYTQDFTVPGQVPEEEASHNGQRRGLPKAVCMNGTEAAQLSTKSRAEGRAPNPARKACSASSKIRRLSACKQQ [I46A] | 1.5 ± 0.22
2 | MEVVDPQQLGMFTEGELMSVGMDTFIHRIDSTEVIYQPRRKRAKLIGKYLMGDLLGEGSYGKVKEVLDSETLCRTAVKILKKKKLRRIPNGEANVKKEIQLLRRLRHKNVIQLVDVLYNEEKQKMYMVMEYCVCGMQEMLDSVPEKRFPVCQAHGYFCQLIDGLEYLHSQGIVHKDIKPGNLLLTTGGTLKISDLGVAEALHPFAADDTCRTSQGSPAFQPPEIANGLDTFSGFKVDIWSAGVTLYNITTGLYPFEGDNIYKLFENIGKGSYAIPGDCGPPLSDLLKGMLEYEPAKRFSIRQIRQHSWFRKKHPPAEAPVPIPPSPDTKDRWRSMTVVPYLEDLHGADEDEDLFDIEDDIIYTQDFTVPGQVPEEEASHNGQRRGLPKAVCMNGTEAAQLSTKSRAEGRAPNPARKACSASSKIRRLSACKQQ [R75T] | 0.85 ± 0.23
3 | MEVVDPQQLGMFTEGELMSVGMDTFIHRIDSTEVIYQPRRKRAKLIGKYLMGDLLGEGSYGKVKEVLDSETLCRRAVKILKKKKLRRIPNGEANVKKEIQLLRRLRHKNVIQLVDVLYNEEKQKMYMVMEYCVCGMQEMLDSVPEKRFPVCQAHGYFCQLIDGLEYLHSQGIVHKDIKPGNLLLTTGGTLKISDLGVAEALHPFAADDTCRTSQGSPAFQPPEIANGLDTFSGFKVDIWSAGVTLYNITTGLYPFEGDNIYKLFENIGKGSYAIPGDCGPPLSDLLKGMLEYEPAKRFSIRQIRQHSWFRKKHPPAEAPVPITPSPDTKDRWRSMTVVPYLEDLHGADEDEDLFDIEDDIIYTQDFTVPGQVPEEEASHNGQRRGLPKAVCMNGTEAAQLSTKSRAEGRAPNPARKACSASSKIRRLSACKQQ [P323T] | 1.32 ± 0.24
4 | MEVVDPQQLGMFTEGELMSVGMDTFIHRIDSTEVIYQPRRKRAKLIGKYLMGDLLGEGSYGKVKEVLDSETLCRRAVKILKKKKLRRIPNGEANVKKEIQLLRRLRHKNVIQLVDVLYNEEKQKMYMVMEYCVCGMQEMLDSVPEKRFPVCQAHGYFCQLIDGLEYLHSQGIVHKDIKPGNLLLTTGGTLKISDLGVAEALHPFAADDTCRTSQGSPAFQPPEIANGLDTFSGFKVDIWSAGVTLYNITHGLYPFEGDNIYKLFENIGKGSYAIPGDCGPPLSDLLKGMLEYEPAKRFSIRQIRQHSWFRKKHPPAEAPVPIPPSPDTKDRWRSMTVVPYLEDLHGADEDEDLFDIEDDIIYTQDFTVPGQVPEEEASHNGQRRGLPKAVCMNGTEAAQLSTKSRAEGRAPNPARKACSASSKIRRLSACKQQ [T250H] | 1.65 ± 0.24
5 | MEVVDPQQLGMFTEGELMSVGMDTFIHRIDSTEVIYQPRRKRAKLIGKYLMGDLLGEGSYGKVKEVLDSETLCKRAVKILKKKKLRRIPNGEANVKKEIQLLRRLRHKNVIQLVDVLYNEEKQKMYMVMEYCVCGMQEMLDSVPEKRFPVCQAHGYFCQLIDGLEYLHSQGIVHKDIKPGNLLLTTGGTLKISDLGVAEALHPFAADDTCRTSQGSPAFQPPEIANGLDTFSGFKVDIWSAGVTLYNITTGLYPFEGDNIYKLFENIGKGSYAIPGDCGPPLSDLLKGMLEYEPAKRFSIRQIRQHSWFRKKHPPAEAPVPIPPSPDTKDRWRSMTVVPYLEDLHGADEDEDLFDIEDDIIYTQDFTVPGQVPEEEASHNGQRRGLPKAVCMNGTEAAQLSTKSRAEGRAPNPARKACSASSKIRRLSACKQQ [R74K] | 1.11 ± 0.62
6 | MEVVDPQQLGMFTEGELMSVGMDTFIHRIDSTEVIYQPRRKRAKLIGKYLMGDLLGEGSYGKVKEVLDSETLCRRAVKILKKKKLRRIPNGEANVKKEIQLLRRLRHKNVIQLVDVLYNEEKQKMYMVMEYCVCGMQEMLDSVPEKRFPVCQAHGYFCQLIDGLEYLHSQGIVHKDIKPGNLLLTTGGTLKISDLGVAEALHPFAADDTCRTSQGSPAFQPPEIANGLDTFSGFKVDIWSAGVTLYNITTGLYPFEGDNIYKLFENIGPGSYAIPGDCGPPLSDLLKGMLEYEPAKRFSIRQIRQHSWFRKKHPPAEAPVPIPPSPDTKDRWRSMTVVPYLEDLHGADEDEDLFDIEDDIIYTQDFTVPGQVPEEEASHNGQRRGLPKAVCMNGTEAAQLSTKSRAEGRAPNPARKACSASSKIRRLSACKQQ [K269P] | 1.26 ± 0.41
7 | MEVVDPQQLGMFTEGELMSVGMDTFIHRIDSTEVIYQPRRKRAKLIGKYLMGDLLGEGSYGKVKEVLDSETLCRRAVKILKKKKLRRIPNGEANVKKEIQLLRRLRHKNVIQLVDVLYNEEKQKMYMVMEYCVCGMQEMLDSVPEKRFPVCQAHGYFCQLIDGLEYLHSQGIVHKDIKPGNLLLTTGGTLKISDLGVAEALHPFAADDTCRTSQGSPAFQPPEIANGLDTFSGFKVDIWSAGVTLYNITTGLYPFEGDNIYKLFENIGKGSYAIPGDCGPPLSDLLKGMLEYEGAKRFSIRQIRQHSWFRKKHPPAEAPVPIPPSPDTKDRWRSMTVVPYLEDLHGADEDEDLFDIEDDIIYTQDFTVPGQVPEEEASHNGQRRGLPKAVCMNGTEAAQLSTKSRAEGRAPNPARKACSASSKIRRLSACKQQ [P294G] | 0.877 ± 0.15
8 | MEVVDPQQLGMFTEGELMSVGMDTFIHRIDSTEVIYQPRRKRAKLIGKYLMGDLLGEGSYGKVKEVLDSETLCRRAVKILKKKKLRRIPNGEANVKKEIQLLRRLRHKNVIQLVDVLYNEEKQKMYMVMEYCVCGMQEMLDSVPEKRFPVCQAHGYFCQLIDGLEYLHSQGIVHKDIKPGNLLLTTGGTLKISDLGVAEALHPFAADDTCRTSQGSPAFQPPEIRNGLDTFSGFKVDIWSAGVTLYNITTGLYPFEGDNIYKLFENIGKGSYAIPGDCGPPLSDLLKGMLEYEPAKRFSIRQIRQHSWFRKKHPPAEAPVPIPPSPDTKDRWRSMTVVPYLEDLHGADEDEDLFDIEDDIIYTQDFTVPGQVPEEEASHNGQRRGLPKAVCMNGTEAAQLSTKSRAEGRAPNPARKACSASSKIRRLSACKQQ [A225R] | 1.07 ± 0.44
9 | MEVVDPQQLGMFTEGELMSVGMDTFIHRIDSTEVIYQPRRKRAKLIGKYLMGDLLGEGSYGKVKEVLDSETLCRRAVKILKKKKLRRIPNGEANVKKEIQLLRRLRHKNVIQLVDVLYNEEKQKMYMVMEYCVCGMQEMLDSVPEKRFPVCQAHGYFCQLIDGLEYLHSQGIVHKDIKPGNLLLTTGGTLKISDLGVAEALHPFAADDTCRTSQGSPAFQPPEIANGLDTFSGFKVDIWSAGVTLYNITTGLYPFEGDNIYKLFENIGKGSYAIPGDCGPPLSDLLKGMLEYEPAKRFSIRQIRQHSWFRKKHPPAEAPVPIPPSPDTKDRWRSMTVVPYLEDLHGADEDEDLFDIEDDIIYTQDFTVPGQVPEEEASHNGQRRGLPKAVCMNGTEAAQLSTKSRAEGRAPNPARKACSASSKIRRLWACKQQ [S428W] | 1.62 ± 0.15
10 | MEVVDPQQLGMFTEGELMSVGMDTFIHRIDSTEVIYQPRRKRAKLIGKYLMGDLLGEGSYGKVKEVLDSETLCRRAVKILKKKKLRRIPNGEANVKKEIQLLRRLRHKNVIQLVDVLYNEEKQKMYMVMEYCVCGMQEMLDSFPEKRFPVCQAHGYFCQLIDGLEYLHSQGIVHKDIKPGNLLLTTGGTLKISDLGVAEALHPFAADDTCRTSQGSPAFQPPEIANGLDTFSGFKVDIWSAGVTLYNITTGLYPFEGDNIYKLFENIGKGSYAIPGDCGPPLSDLLKGMLEYEPAKRFSIRQIRQHSWFRKKHPPAEAPVPIPPSPDTKDRWRSMTVVPYLEDLHGADEDEDLFDIEDDIIYTQDFTVPGQVPEEEASHNGQRRGLPKAVCMNGTEAAQLSTKSRAEGRAPNPARKACSASSKIRRLSACKQQ [V143F] | 1.01 ± 0.28
11 | MEVVDPQQLGMFTEGELMSVGMDTFIHRIDSTEVIYQPRRKRAKLIGKYLMGDLLGEGSYGKVKEVLDSETLCRRAVKILKKKKLRRIPNGEANVKKEIQLLRRLRHKNVIQLVDVLYNEEKQKMYMVMEYCVCGMQEMLDSVPEKRFPVCQAHGYFCQLIDGLEYLHSQGIVHKDIKPGNLLLTTGGTLKISDLGVAEALHPFAADDTCRTSQGSPAFQPPEIANGLDTFSGFKVDIWSAGVTLYNITTGLYPFEGDNIYKLFENIGKGSYAIPGDCGPPLSDLLKGMLEYEPAKRFSIRQIRQHSWFRKKHPPAEAPVPIPPSPDTKDRWRSMTVVPYLEDLHGADEDEDLFDIEDDIIYTQDFTVPGQVPEEEASHNGQRRGLPKAVCMNGTEAALLSTKSRAEGRAPNPARKACSASSKIRRLSACKQQ [Q399L] | 1.31 ± 0.25
12 | MEVVDPQQLGMFTEGELMSVGMDTFIHRIDSTEVIYQPRRKRAKLIGKYLMGDLLGEGSYGKVKEVLDSETLCRRAVKILKKKKLRRIPNGEANVKKEIQLLRRLRHKNVIQLVDVLYNEEKQKMYMVMEYCVCGMQEMLDSVPEKRFPVCQAHGYFCCLIDGLEYLHSQGIVHKDIKPGNLLLTTGGTLKISDLGVAEALHPFAADDTCRTSQGSPAFQPPEIANGLDTFSGFKVDIWSAGVTLYNITTGLYPFEGDNIYKLFENIGKGSYAIPGDCGPPLSDLLKGMLEYEPAKRFSIRQIRQHSWFRKKHPPAEAPVPIPPSPDTKDRWRSMTVVPYLEDLHGADEDEDLFDIEDDIIYTQDFTVPGQVPEEEASHNGQRRGLPKAVCMNGTEAAQLSTKSRAEGRAPNPARKACSASSKIRRLSACKQQ [Q159C] | 0.889 ± 0.35
13 | MEVVDPQQLGMFTEGELMSVGMDTFIHRIDSTEVIYQPRRKRAKLIGKYLMGDLLGEGSYGKVKEVLDSETLGRRAVKILKKKKLRRIPNGEANVKKEIQLLRRLRHKNVIQLVDVLYNEEKQKMYMVMEYCVCGMQEMLDSVPEKRFPVCQAHGYFCQLIDGLEYLHSQGIVHKDIKPGNLLLTTGGTLKISDLGVAEALHPFAADDTCRTSQGSPAFQPPEIANGLDTFSGFKVDIWSAGVTLYNITTGLYPFEGDNIYKLFENIGKGSYAIPGDCGPPLSDLLKGMLEYEPAKRFSIRQIRQHSWFRKKHPPAEAPVPIPPSPDTKDRWRSMTVVPYLEDLHGADEDEDLFDIEDDIIYTQDFTVPGQVPEEEASHNGQRRGLPKAVCMNGTEAAQLSTKSRAEGRAPNPARKACSASSKIRRLSACKQQ [C73G] | 1 ± 0.2
14 | MEVVDPQQLGMFTEGELMSVGMDTFIHRIDSTEVIYQPRRKRAKLIGKYLMGDLLGEGSYGKVKEVLDSETLCRRAVKILKKKKLRRIPNGEANVKKEIQLLRRLRHKNVIQLVDVLYNEEKQKMYMVMEYCVCGMQEMLDSVPEKRFPVCQAHGYFCQLIDGLEYLHSQGIVHKDIKPGNLLLTTGGTLKISDLGVAEALHPFAADDTCRTSQGSPAFQPPEIANGLDTFSGFKVDIWSAGVTLYNITTGLYPFEGDNIYKLFENIGKGSYAIPGDCGPPLSDLLKGMLEYEPAKRFSIRQIRQHSWFRKKHPPAEAPVPIPPSPDTKDRWRSMTVVPYLEDLHGADEDEDLFDIEDDIIYTQDFTVPGQVPEEEASHNGQRRGLPKAVCMNGTEAAQLPTKSRAEGRAPNPARKACSASSKIRRLSACKQQ [S401P] | 1.07 ± 0.67
